{
  "source": "patent US20230256114A1",
  "about": "“NOVEL MAYTANSINOIDS AS ADC PAYLOADS AND THEIR USE FOR THE TREATMENT OF CANCER” (priority 2020, published 2023)",
  "molecules": {"B1": {"name": "Anti-Trop-2-BI-P203 (antibody, V domains shown)", "VH": "SALMSRLTISKDTSKNQFSLKLSSVTAADTAVYYCARDENWDGAWFAYWGQGTLVTVSS", "VL": "DIVMTQSPDSLAVSLGERATINCKSSQSLLNSGTRKNYLAWYQQKPGQPPKLLISWASSRESGVPDRFSGSGSGTDFTLTISSLQAEDVAVYYCKQSYNLFTFGGGTKVEIKR", "modifications": "BI-P203 maytansinoid drug-linker on reduced cysteines via the maleimide group; positions not given; DAR 3.5, 5.1 or 7"}},
  "key": {"[1]": {"system": "MDA-MB-468 breast cancer cells", "test": "In vitro cytotoxicity assay (Cell Counting Kit-8, 72 hours)", "format": "cell-based, human", "conditions": "FIG. 21", "description": "(§1) Anti-Trop-2 ADCs were conjugated with different DM1 derivatives with similar DARs, and were tested ahead to ahead with anti-Trop-2-SMCC-DM1 and anti-Trop-2-vc-MMAE against BxPC-3 pancreatic cancer cells representing high Trop-2 expression, MDA-MB-468 breast cancer cells, N87 gastric cancer cells, and SK-BR-3 […] cancer cells representing moderate Trop-2 expression, Colo205 colon cancer cells representing low Trop-2 expression, and A549 lung cancer cells and MDA-MB-231 breast cancer cells with undetectable level of Trop-2. In vitro cytotoxicity assay was performed. Briefly, all cell lines were cultured in a suitable culture medium at 37° C. in a humidified incubator atmosphere of 5% CO2. Cells were plated in 96-well flat bottom plates. Cell seeding number ranged from 500 cells//100 ul/well to 6,000 cells/100 μl/well. Cells were allowed to adhere overnight at 37° C. in a humidified atmosphere of 5% CO2. ADCs were prepared from stock solution and diluted into appropriated working concentration 24 hours after cell seeding. […] Cell Counting Kit-8 solution (Dojindo China Co., Ltd, lot #PL701) was added to the wells for 1-4 hours at 37° C. and the absorbance at 450 nm was measured using a Microplate Reader (SpectraMax M5, Molecular Devices) and SoftMax Pro5.4.1 software. Dose-response curves were generated and IC50 was calculated using GraphPad Prism 7 three-parameter curve fitting."}, "[2]": {"test": "Solubility of payloads and ADCs (comparison in words)", "conditions": "inferred from Table 2", "description": "The lipophilicity and aggregation rate of the ADCs of the present invention were characterized. The most commonly used measure of lipophilicity is LogP, which is the partition coefficient of a molecule between aqueous and lipophilic phases, usually octanol and water. […] In this experiment, the LogP of anti-Trop-2 BI-P203 and anti-Trop-2-SMCC-DM1 was calculated using ChemDraw software. Size exclusion chromatography (SEC) was used to characterize the ADC monomer and their aggregates."}, "[3]": {"test": "Size exclusion chromatography (SEC) of ADC monomer and aggregates", "format": "physicochemical", "conditions": "for Aggregation rate (%): anti-Trop-2 ADC with the named payload, Cysteine conjugation", "description": "Some embodiments of the invention relate to DM1s linked to antibodies via a non-cleavable linker. In this example, anti-Trop-2 antibody was reduced by adding antibody to TCEP (Tris (2-carboxyethyl) phosphine) dissolved in a pH-adjusted PBS EDTA buffer. The antibody/TCEP solution was incubated at 37° C. for 2-3 hrs. The reduced antibodies were buffer exchanged into conjugation reaction buffer. The BI-P203 payload dissolved in DMSO was added to a solution of reduced anti-Trop-2 monoclonal antibody at payload/antibody ratio of 7-30:1 in order to achieve different drug to antibody ratios (DARs). The payload/antibody solution was incubated for 1-2 hr at 20° C. while the reduced antibody was conjugated to BI-P203 payload via the maleimide group. After conjugation was completed, the reaction mixture was desalted and concentrated to yield anti-Trop-2-DM1 ADCs. The biochemical properties of the resulting ADCs were characterized using size-exclusion chromatography high pressure liquid chromatography (SEC-HPLC) to determine purity and aggregation content, and by using hydrophobic interaction chromatography HPLC (HIC-HPLC) to confirm drug loading (DAR). The conjugation procedure is illustrated in FIG. 12. The final ADC products are comprised of four or six or seven DM1-linker molecules. The cysteine conjugation method used in the conjugation process produces more homogenous ADCs compared to lysine conjugation method."}, "[4]": {"system": "MDA-MB-468, SK-BR-3, Colo205, and A549 cells", "test": "In vitro cytotoxicity assay of ADCs and free payloads (FIG. 20)", "format": "cell-based", "conditions": "all tested cells", "description": "as §1, with “fitting. […]” for “fitting.”"}, "[5]": {"test": "Size exclusion chromatography (SEC) of ADC monomer and aggregates", "format": "physicochemical", "conditions": "anti-Trop-2 ADC with the named payload, Lysine conjugation, DAR 3.9"}, "[6]": {"biological_target": "T1, Trophoblast cell-surface antigen-2 (Trop-2) (human, UniProt P09758 27-323)", "T1 sequence (looked up)": "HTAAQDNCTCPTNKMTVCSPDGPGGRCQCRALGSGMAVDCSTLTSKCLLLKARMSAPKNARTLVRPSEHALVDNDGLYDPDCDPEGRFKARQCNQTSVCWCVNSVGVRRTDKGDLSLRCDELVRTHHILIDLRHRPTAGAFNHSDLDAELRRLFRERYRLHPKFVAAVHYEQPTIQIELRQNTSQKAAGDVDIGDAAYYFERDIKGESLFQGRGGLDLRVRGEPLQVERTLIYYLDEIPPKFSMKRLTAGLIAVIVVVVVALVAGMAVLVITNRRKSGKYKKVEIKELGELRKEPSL", "test": "cell-based or functional assay"}},
  "data": [
    {"molecule": "COc1cc2cc(c1Cl)N(C)C(=O)C[C@H](OC(=O)[C@H](C)N(C)C(=O)CCOCCn1cc(COCCOCCOCCOCCNC(=O)CCN3C(=O)C=CC3=O)nn1)[C@@]1(C)O[C@H]1[C@H](C)[C@@H]1C[C@@](O)(NC(=O)O1)C(OC)/C=C/C=C(\\C)C2", "note": "(stereo partly shown) [BI-P203]", "values": [
      {"measurement": "in vitro activity of the free payload compared with free SMCC-DM1 payload", "setting": "[1]", "value": "less activity than that of free SCMM-DM1 payload"},
      {"measurement": "solubility of payload compared to SMCC-DM1 payload", "setting": "[2]", "value": "increased solubility"},
      {"measurement": "aggregation rate compared to SMCC-DM1 payload", "setting": "[3]; ADCs of the payloads", "value": "decreased aggregation rate"},
      {"measurement": "Aggregation rate (%)", "setting": "[3]; DAR 3.5", "value": 0.33, "unit": "%"},
      {"measurement": "Aggregation rate (%)", "setting": "[3]; DAR 6.2", "value": 1.0, "unit": "%"},
      {"measurement": "Aggregation rate (%)", "setting": "[3]; DAR 7.0", "value": 2.0, "unit": "%"}
    ]},
    {"molecule": "COc1cc2cc(c1Cl)N(C)C(=O)C[C@H](OC(=O)[C@H](C)N(C)C(=O)CCCCCn1cc(COCCOCCOCCOCCNC(=O)CCN3C(=O)C=CC3=O)nn1)[C@@]1(C)O[C@H]1[C@H](C)[C@@H]1C[C@@](O)(NC(=O)O1)C(OC)/C=C/C=C(\\C)C2", "note": "(stereo partly shown) [BI-P204]", "values": [
      {"measurement": "Aggregation rate (%)", "setting": "[3]; DAR 2.8", "value": 0.65, "unit": "%"}
    ]},
    {"molecule": "COc1cc2cc(c1Cl)N(C)C(=O)C[C@H](OC(=O)C1CCN(C(=O)CCOCCOCCOCCOCCNC(=O)CCN3C(=O)C=CC3=O)CC1)[C@@]1(C)O[C@H]1[C@H](C)[C@@H]1C[C@@](O)(NC(=O)O1)C(OC)/C=C/C=C(\\C)C2", "note": "(stereo partly shown) [BI-P206]", "values": [
      {"measurement": "Aggregation rate (%)", "setting": "[3]; DAR 3.6", "value": 0.76, "unit": "%"}
    ]},
    {"molecule": "COc1cc2cc(c1Cl)N(C)C(=O)C[C@H](OC(=O)C1CCN(C(=O)CCOCCOCCOCCOCCOCCOCCNC(=O)CCN3C(=O)C=CC3=O)CC1)[C@@]1(C)O[C@H]1[C@H](C)[C@@H]1C[C@@](O)(NC(=O)O1)C(OC)/C=C/C=C(\\C)C2", "note": "(stereo partly shown) [BI-P207]", "values": [
      {"measurement": "Aggregation rate (%)", "setting": "[3]; DAR 3.4", "value": 1.02, "unit": "%"}
    ]},
    {"molecule": "COc1cc2cc(c1Cl)N(C)C(=O)C[C@H](OC(=O)C1CCC(CNC(=O)CCOCCOCCOCCOCCNC(=O)CCN3C(=O)C=CC3=O)CC1)[C@@]1(C)O[C@H]1[C@H](C)[C@@H]1C[C@@](O)(NC(=O)O1)C(OC)/C=C/C=C(\\C)C2", "note": "(stereo partly shown) [BI-P208]", "values": [
      {"measurement": "Aggregation rate (%)", "setting": "[3]; DAR 3.0", "value": 2.04, "unit": "%"},
      {"measurement": "Aggregation rate (%)", "setting": "[3]; DAR 6.7", "value": 9.46, "unit": "%"},
      {"measurement": "Aggregation rate (%)", "setting": "[3]; DAR 7.3", "value": 6.02, "unit": "%"}
    ]},
    {"molecule": "COc1cc2cc(c1Cl)N(C)C(=O)C[C@H](OC(=O)[C@H](C)N(C)C(=O)COCCn1cc(COCCOCCOCCNC(=O)CCN3C(=O)C=CC3=O)nn1)C1(C)O[C@H]1[C@H](C)[C@@H]1C[C@@](O)(NC(=O)O1)C(OC)/C=C/C=C(\\C)C2", "note": "(stereo partly shown) [BI-P209]", "values": [
      {"measurement": "in vitro cytotoxic potency of the free payload compared with free BI-P203", "setting": "[4]", "value": "slightly more potent than free BI-P203"},
      {"measurement": "Aggregation rate (%)", "setting": "[3]; DAR 6.2", "value": 4.96, "unit": "%"}
    ]},
    {"molecule": "COc1cc2cc(c1Cl)N(C)C(=O)C[C@H](OC(=O)[C@H](C)N(C)C(=O)CCSC1CC(=O)N(CC3CCC(C(=O)ON4C(=O)CCC4=O)CC3)C1=O)[C@]1(C)O[C@H]1[C@H](C)[C@@H]1C[C@@](O)(NC(=O)O1)[C@H](OC)/C=C/C=C(\\C)C2", "note": "(stereo partly shown) [SMCC-DM1]", "values": [
      {"measurement": "Aggregation rate (%)", "setting": "[5]", "value": 3.6, "unit": "%"}
    ]},
    {"molecule": "B1", "values": [
      {"measurement": "IC50 (nM), in vitro cytotoxicity (CCK-8, 72 h), BxPC-3 cells (TROP2 +++), ADC at DAR 3.5", "setting": "[6]", "value": 0.48, "unit": "nM"},
      {"measurement": "IC50 (nM), in vitro cytotoxicity (CCK-8, 72 h), BxPC-3 cells (TROP2 +++), ADC at DAR 7", "setting": "[6]", "value": 0.59, "unit": "nM"},
      {"measurement": "IC50 (nM), in vitro cytotoxicity (CCK-8, 72 h), Colo205 cells (TROP2 +), ADC at DAR 7", "setting": "[6]", "value": 31.8, "unit": "nM"},
      {"measurement": "IC50 (nM), in vitro cytotoxicity (CCK-8, 72 h), MDA-MB-468 cells (TROP2 ++), ADC at DAR 5.1", "setting": "[6]", "value": 1.2, "unit": "nM"},
      {"measurement": "IC50 (nM), in vitro cytotoxicity (CCK-8, 72 h), MDA-MB-468 cells (TROP2 ++), ADC at DAR 7", "setting": "[6]", "value": 0.77, "unit": "nM"},
      {"measurement": "IC50 (nM), in vitro cytotoxicity (CCK-8, 72 h), NCI-N87 cells (TROP2 ++/+), ADC at DAR 3.5", "setting": "[6]", "value": 8.93, "unit": "nM"},
      {"measurement": "IC50 (nM), in vitro cytotoxicity (CCK-8, 72 h), NCI-N87 cells (TROP2 ++/+), ADC at DAR 7", "setting": "[6]", "value": 0.62, "unit": "nM"}
    ]}
  ]
}
